Values quoted from earlier work, collected in PMC8469970.

Molecular target: Galectin-1 (Homo sapiens) (UniProt P09382)

Question: With Galectin-1 (from UniProt P09382) as the substance, how does the Kd read?
Answer: 7 µM
